Reference: PMC12915166 (2025)

How the values were obtained:
[1] = target: T1, HA-2 (HA-2V allele), encoded by MYO1G peptide on HLA-A*02:01 (human)
T1 peptide: YIGEVLVSV

[2] = target: T2, HA-1 (HA-1H allele), encoded by ARHGAP45 peptide on HLA-A*02:06 (human); assay: activation reporter or marker
T2 peptide: VLHDDLLEA

Binder	EC50 of peptide [1]	binding result [2]
anti-HA-2V TCR clone 6 (TCR) alpha TRAV38-2DV8 TRAJ34 CDR3: AYRRFYNTDKLI beta TRBV19 TRBJ1-1 CDR3: ASRSAGYAEAF	21 nM	–
anti-HA-2V TCR clone 7 (TCR) alpha TRAV21 TRAJ42 CDR3: AVRSGYGGSQGNL beta TRBV7-8 TRBJ2-5 CDR3: ASSLAGGSLQETQY	0.7 nM	–
anti-HA-1H TCR clone 7 (TCR) alpha TRAV3 TRAJ40 CDR3: AVRAPTSGTYKYI beta TRBV7-9 TRBJ2-1 CDR3: ASSLVSGNEQF	–	recognises
